Test results taken from patent US20250018014A1, “METHOD FOR TREATING AND/OR PREVENTING REGNASE-1-RELATED DISEASE” (OSAKA UNIVERSITY, priority 2018, published 2025).
Where two headings read alike, the source gives them in different places. Positions of bridges follow the written chain, without caps; N, C: chain ends. Non-standard residues stand in square brackets, D forms with d. *: point of attachment. NMeA = CN[C@@H](C)C(=O)O; Pyrrolidide = C1CCN(*)C1; dNMeA = CN[C@H](C)C(=O)O

T1: full-length human Regnase-1 with a FLAG tag on the N-terminal side and a biotin ligase BirA recognition … (human, UniProt Q5D1E8 1-599, biotinylated at the BirA recognition sequence when required)
T1 sequence: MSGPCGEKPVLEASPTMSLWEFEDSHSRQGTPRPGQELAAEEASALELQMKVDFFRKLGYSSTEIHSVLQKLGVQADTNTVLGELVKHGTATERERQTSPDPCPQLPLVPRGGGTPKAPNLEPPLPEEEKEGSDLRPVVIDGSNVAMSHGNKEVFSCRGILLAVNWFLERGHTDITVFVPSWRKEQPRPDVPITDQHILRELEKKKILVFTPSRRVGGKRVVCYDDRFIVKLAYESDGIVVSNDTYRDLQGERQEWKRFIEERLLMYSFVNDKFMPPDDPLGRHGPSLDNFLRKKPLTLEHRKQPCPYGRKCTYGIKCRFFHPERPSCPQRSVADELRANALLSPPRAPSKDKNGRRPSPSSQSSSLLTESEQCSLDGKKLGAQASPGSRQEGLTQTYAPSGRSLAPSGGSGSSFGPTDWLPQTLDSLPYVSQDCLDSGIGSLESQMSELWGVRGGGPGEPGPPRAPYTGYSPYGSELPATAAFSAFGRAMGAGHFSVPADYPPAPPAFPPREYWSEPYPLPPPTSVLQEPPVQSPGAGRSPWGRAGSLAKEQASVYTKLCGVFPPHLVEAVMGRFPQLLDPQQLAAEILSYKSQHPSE

T2: C-terminal domain-deleted human Regnase-1 (amino acids 1 to 546) with N-terminal FLAG tag and C-terminal BirA … (human, UniProt Q5D1E8 1-546)
T2 sequence: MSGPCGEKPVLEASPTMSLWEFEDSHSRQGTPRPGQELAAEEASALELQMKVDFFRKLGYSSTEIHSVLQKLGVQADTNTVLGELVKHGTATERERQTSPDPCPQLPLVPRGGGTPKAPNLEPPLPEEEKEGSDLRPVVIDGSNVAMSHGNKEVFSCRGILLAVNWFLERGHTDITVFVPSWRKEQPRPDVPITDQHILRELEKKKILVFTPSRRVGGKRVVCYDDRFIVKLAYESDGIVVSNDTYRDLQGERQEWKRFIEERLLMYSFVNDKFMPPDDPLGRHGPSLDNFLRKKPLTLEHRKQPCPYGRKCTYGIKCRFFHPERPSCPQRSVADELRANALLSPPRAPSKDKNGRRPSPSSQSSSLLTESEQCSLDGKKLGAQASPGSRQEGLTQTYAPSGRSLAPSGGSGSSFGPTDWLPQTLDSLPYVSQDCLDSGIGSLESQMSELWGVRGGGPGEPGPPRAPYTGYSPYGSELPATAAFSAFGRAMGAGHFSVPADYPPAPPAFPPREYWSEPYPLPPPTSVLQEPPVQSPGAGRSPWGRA

T3: C-terminal human Regnase-1 (amino acids 301 to 599) with N-terminal FLAG tag and C-terminal BirA recognition … (human, UniProt Q5D1E8 301-599)
T3 sequence: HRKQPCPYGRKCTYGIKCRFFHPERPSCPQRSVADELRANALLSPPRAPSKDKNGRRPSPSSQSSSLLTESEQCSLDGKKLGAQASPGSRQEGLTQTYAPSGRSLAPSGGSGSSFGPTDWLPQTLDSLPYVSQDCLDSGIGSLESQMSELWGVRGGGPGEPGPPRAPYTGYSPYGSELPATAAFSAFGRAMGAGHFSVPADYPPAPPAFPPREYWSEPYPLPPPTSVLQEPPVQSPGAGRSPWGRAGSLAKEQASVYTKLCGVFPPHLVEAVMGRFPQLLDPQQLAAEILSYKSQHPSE


What was measured:
Assay in all cases: cell-based or functional assay
[1] = target: T1, full-length human Regnase-1 with a FLAG …
[2] = target: T2, C-terminal domain-deleted human …
[3] = target: T1, full-length human Regnase-1 with a FLAG …; remark: listed apart in the source
[4] = target: T2, C-terminal domain-deleted human …; remark: listed apart in the source
[5] = target: T3, C-terminal human Regnase-1 (amino acids …)
[6] = target: T1, full-length human Regnase-1 with a FLAG …; remark: listed apart in the source
[7] = target: T2, C-terminal domain-deleted human …; remark: listed apart in the source
[8] = target: T3, C-terminal human Regnase-1 (amino acids …); remark: listed apart in the source

Binder | 50% inhibition concentration, Regnase-1 phosphorylation by IKKβ (AlphaScreen) [1] [µM] | 50% inhibition concentration, Regnase-1 phosphorylation by TBK1 (AlphaScreen) [1] [µM] | 50% inhibition concentration, Regnase-1 phosphorylation by IKKβ (AlphaScreen) [2] [µM] | 50% inhibition concentration, Regnase-1 phosphorylation by TBK1 (AlphaScreen) [2] [µM] | 50% inhibition concentration, Regnase-1 phosphorylation by TBK1 (AlphaScreen) [3] [µM] | 50% inhibition concentration, Regnase-1 phosphorylation by TBK1 (AlphaScreen) [4] [µM] | 50% inhibition concentration, Regnase-1 phosphorylation by TBK1 (AlphaScreen) [5] [µM] | 50% inhibition concentration, Regnase-1 phosphorylation by IKKβ (AlphaScreen) [6] [µM] | 50% inhibition concentration, Regnase-1 phosphorylation by IKKβ (AlphaScreen) [7] [µM] | 50% inhibition concentration, Regnase-1 phosphorylation by IKKβ (AlphaScreen) [8] [µM]
XGYANSWYNIWD (HELM PEPTIDE1{[meA].G.Y.A.N.S.W.Y.N.I.W.D.[C1CCN([*:1])C1]}$PEPTIDE1,PEPTIDE1,1:R1-12:R3$$$V2.0; SMILES CC[C@H](C)[C@@H]1NC(=O)[C@H](CC(N)=O)NC(=O)[C@H](Cc2ccc(O)cc2)NC(=O)[C@H](Cc2c[nH]c3ccccc23)NC(=O)[C@H](CO)NC(=O)[C@H](CC(N)=O)NC(=O)[C@H](C)NC(=O)[C@H](Cc2ccc(O)cc2)NC(=O)CNC(=O)[C@H](C)N(C)C(=O)C[C@@H](C(=O)N2CCCC2)NC(=O)[C@H](Cc2c[nH]c3ccccc23)NC1=O) [PP2] | 16.6 | 21.7 | 14 | 17.6 | 21.7 | 17.6 | 22.4 | 16.6 | 14 | 18.5
XPNSSWFKIWD (HELM PEPTIDE1{[C[C@H](C(=O)[*:2])N(C)[*:1]].P.N.S.S.W.F.K.I.W.D.[C1CCN([*:1])C1]}$PEPTIDE1,PEPTIDE1,1:R1-11:R3$$$V2.0; SMILES CC[C@H](C)[C@@H]1NC(=O)[C@H](CCCCN)NC(=O)[C@H](Cc2ccccc2)NC(=O)[C@H](Cc2c[nH]c3ccccc23)NC(=O)[C@H](CO)NC(=O)[C@H](CO)NC(=O)[C@H](CC(N)=O)NC(=O)[C@@H]2CCCN2C(=O)[C@@H](C)N(C)C(=O)C[C@@H](C(=O)N2CCCC2)NC(=O)[C@H](Cc2c[nH]c3ccccc23)NC1=O) [PP6] | 17 | 13.1 | 20.3 | 14.5 | 13.1 | 14.5 | 16.8 | 17 | 20.3 | 17.5
[dNMeA]KHASAWYRIWD-Pyrrolidide (lactam N-12) [PP3] | 4.6 | 3.9 | 8.3 | 5.7 | 3.9 | 5.7 | 7.1 | 4.6 | 8.3 | 6.8
XTSWYKVNWGQD (HELM PEPTIDE1{[meA].T.S.W.Y.K.V.N.W.G.Q.D.[C1CCN([*:1])C1]}$PEPTIDE1,PEPTIDE1,1:R1-12:R3$$$V2.0; SMILES CC(C)[C@@H]1NC(=O)[C@H](CCCCN)NC(=O)[C@H](Cc2ccc(O)cc2)NC(=O)[C@H](Cc2c[nH]c3ccccc23)NC(=O)[C@H](CO)NC(=O)[C@H]([C@@H](C)O)NC(=O)[C@H](C)N(C)C(=O)C[C@@H](C(=O)N2CCCC2)NC(=O)[C@H](CCC(N)=O)NC(=O)CNC(=O)[C@H](Cc2c[nH]c3ccccc23)NC(=O)[C@H](CC(N)=O)NC1=O) [PP1] | 28.1 | 54.5 | > 62.1 | > 62.1 | 54.5 | > 62.1 | > 62.1 | 28.1 | > 62.1 | > 62.1
XHSNAWYNIWD (HELM PEPTIDE1{[meA].H.S.N.A.W.Y.N.I.W.D.[C1CCN([*:1])C1]}$PEPTIDE1,PEPTIDE1,1:R1-11:R3$$$V2.0; SMILES CC[C@H](C)[C@@H]1NC(=O)[C@H](CC(N)=O)NC(=O)[C@H](Cc2ccc(O)cc2)NC(=O)[C@H](Cc2c[nH]c3ccccc23)NC(=O)[C@H](C)NC(=O)[C@H](CC(N)=O)NC(=O)[C@H](CO)NC(=O)[C@H](Cc2c[nH]cn2)NC(=O)[C@H](C)N(C)C(=O)C[C@@H](C(=O)N2CCCC2)NC(=O)[C@H](Cc2c[nH]c3ccccc23)NC1=O) [PP5] | 23.6 | 24.2 | 20.4 | 19.1 | 24.2 | 19.1 | 40.4 | 23.6 | 20.4 | 31.3
[NMeA]YIWDFFGDLD-Pyrrolidide (lactam N-11) [PP4] | 19.5 | 61.9 | 8.3 | 44.9 | 61.9 | 44.9 | 35.9 | 19.5 | 8.3 | 12.8
